Patent US20260151494A1 (ARO BIOTHERAPEUTICS, published 2026)
Changes are numbered by the printed parent chain.

B1: CD71-binding FN3 domain of SEQ ID NO: 234 (designed binder)
chain: MSLPAPKNLVVSRVTEDSARLSWTAPDAAFDSFFIGYLEPQPPGEAIALYVPGSERSYDLTGLKPGTEYNVTIQGVKGGFPSEPLVAHFTT
B2: CD71-binding FN3 domain of SEQ ID NO: 331 (designed binder)
chain: B1 chain with A48H, G78V, V86I, H88N
B3: CD71-binding FN3 domain of SEQ ID NO: 270 (designed binder)
chain: B1 chain with A48H, V86I, H88N, F89S
B4: CD71-binding FN3 domain of SEQ ID NO: 974 (designed binder)
chain: B1 chain with E83L, H88T
B5: CD71-binding FN3 domain of SEQ ID NO: 335 (designed binder)
chain: B1 chain with A48D, E83L, H88T
B6: CD71-binding FN3 domain of SEQ ID NO: 333 (designed binder)
chain: B1 chain with K7E, E83L, H88T
B7: CD71-binding FN3 domain of SEQ ID NO: 290 (designed binder)
chain: B1 chain with A48H, H88T
B8: CD71-binding FN3 domain of SEQ ID NO: 972 (designed binder)
chain: B1 chain with V76A, A87V
B9: CD71-binding FN3 domain of SEQ ID NO: 281 (designed binder)
chain: B1 chain with V86I, H88N
B10: CD71-binding FN3 domain of SEQ ID NO: 341 (designed binder)
chain: B1 chain with A48E, E83L, H88I
B11: CD71-binding FN3 domain of SEQ ID NO: 264 (designed binder)
chain: B1 chain with A87V
B12: CD71-binding FN3 domain of SEQ ID NO: 973 (designed binder)
chain: B1 chain with A48H, V71G, G78V, V86I, H88N
B13: CD71-binding FN3 domain of SEQ ID NO: 335 conjugated to KRAS2 siRNA (designed binder)
chain: B1 chain with A48D, E83L, H88T
modifications: conjugated to KRAS2 tool siRNA; site and linker not stated
B14: CD71-binding FN3 domain of SEQ ID NO: 331 conjugated to KRAS2 siRNA (designed binder)
chain: B1 chain with A48H, G78V, V86I, H88N
modifications: conjugated to KRAS2 tool siRNA; site and linker not stated
B15: CD71-binding FN3 domain of SEQ ID NO: 293 conjugated to KRAS2 siRNA (designed binder)
chain: B1 chain with A48D, E83H, H88T
modifications: conjugated to KRAS2 tool siRNA; site and linker not stated
B16: CD71-binding FN3 domain of SEQ ID NO: 973 conjugated to KRAS2 siRNA (designed binder)
chain: B1 chain with A48H, V71G, G78V, V86I, H88N
modifications: conjugated to KRAS2 tool siRNA; site and linker not stated
B17: CD71-binding FN3 domain of SEQ ID NO: 341 conjugated to KRAS2 siRNA (designed binder)
chain: B1 chain with A48E, E83L, H88I
modifications: conjugated to KRAS2 tool siRNA; site and linker not stated
B18: CD71-binding FN3 domain of SEQ ID NO: 333 conjugated to KRAS2 siRNA (designed binder)
chain: B1 chain with K7E, E83L, H88T
modifications: conjugated to KRAS2 tool siRNA; site and linker not stated
B19: CD71-binding FN3 domain of SEQ ID NO: 974 conjugated to KRAS2 siRNA (designed binder)
chain: B1 chain with E83L, H88T
modifications: conjugated to KRAS2 tool siRNA; site and linker not stated
B20: CD71-binding FN3 domain of SEQ ID NO: 290 conjugated to KRAS2 siRNA (designed binder)
chain: B1 chain with A48H, H88T
modifications: conjugated to KRAS2 tool siRNA; site and linker not stated
B21: CD71-binding FN3 domain of SEQ ID NO: 343 conjugated to KRAS2 siRNA (designed binder)
chain: B1 chain with Y50W, H88T
modifications: conjugated to KRAS2 tool siRNA; site and linker not stated
B22: CD71-binding FN3 domain of SEQ ID NO: 295 conjugated to KRAS2 siRNA (designed binder)
chain: B1 chain with A48D, H88T
modifications: conjugated to KRAS2 tool siRNA; site and linker not stated
B23: CD71-binding FN3 domain of SEQ ID NO: 222 (designed binder)
chain: B1 chain with A48T, E83G, V86I, H88S
B24: CD71-binding FN3 domain of SEQ ID NO: 231 (designed binder)
chain: B1 chain with A48H, Y50F, V86I, H88N, F89S
B25: CD71-binding FN3 domain of SEQ ID NO: 221 (designed binder)
chain: B1 chain with Q41R, A48H, V71I, E83I, V86I, H88S
B26: CD71-binding FN3 domain of SEQ ID NO: 229 (designed binder)
chain: MSLPAPKNLVVSRVTEDSARLSWTAPDAAFDSFSIMYAEQKVNGEAIVLTVPGSERSYDLTGLKPGTEYLVLIWGVKGGGRSLPLSAIFTT
B27: CD71-binding FN3 domain of SEQ ID NO: 225 (designed binder)
chain: MSLPAPKNLVVSRVTEDSARLSWTAPDAAFDSFEIGYFENLYLGEAIVLTVPGSERSYDLTGLKPGTEYWVQIGGVKGGNWSAPLSAIFTT
B28: CD71-binding FN3 domain of SEQ ID NO: 233 (designed binder)
chain: B27 chain with E34F, F38L, N40P, L41Q, Y42P, L43P, V48H, T50S
B29: CD71-binding FN3 domain of SEQ ID NO: 223 (designed binder)
chain: B27 chain with G36A, N40R, L41T, Y42W, L43F, Q72A, N80L, A83L, A87V
B30: CD71-binding FN3 domain of SEQ ID NO: 232 (designed binder)
chain: MSLPAPKNLVVSRVTEDSARLSWTAPDAAFDSFEISYWEHTFNGEAIILFVPGSERSYDLTGLKPGTEYVVFIGGVKGGVWSVPLSAIFTT
B31: CD71-binding FN3 domain of SEQ ID NO: 220 (designed binder)
chain: B27 chain with G36A, F38W, N40Q, L41S, L43T
B32: CD71-binding FN3 domain of SEQ ID NO: 228 (designed binder)
chain: B27 chain with F38W, L41A, L43K, W70V, Q72F, N80V, A83K, A87V
B33: CD71-binding FN3 domain of SEQ ID NO: 226 (designed binder)
chain: B27 chain with V11I, Q72A, N80L, A83L
B34: CD71-binding FN3 domain of SEQ ID NO: 224 (designed binder)
chain: B27 chain with F38W, L41A, L43K, W70V, Q72F, N80G, A83G
B35: CD71-binding FN3 domain of SEQ ID NO: 230 (designed binder)
chain: B27 chain with V10I, F33L
B36: CD71-binding FN3 domain of SEQ ID NO: 227 (designed binder)
chain: MSLPAPKNLVVSRVTEDSARLSWTAPDAAFDSFEIAYAELSTGEAIVLTVPGSERSYDLTGLKPGTEYYVHIGGVKGGSWSIPLSAIFTT
B37: CD71-binding FN3 domain of SEQ ID NO: 219 (designed binder)
chain: MSLPAPKNLVVSRVTEDSARLSWTAPDAAFDSFAIMYGERGNPGEAIVLTVPGSERSYDLTGLKPGTEYAVWIYGVKGGNYSYPLSAIFTT
notes: the tag is not included in the chain
B38: CD71-binding FN3 domain of SEQ ID NO: 540 (designed binder)
chain: MLPAPKNLVVSRVTEDSARLSWTAPDAAFDSFYIAYAEPRPDGEAIILVVPGSERSYDLTGLKPGTEYSVLIHGVKGGLLSSPLDAGFTT
notes: Tencon-based FN3 domain

Each binder was assayed against T1, human CD71 on cells (SKBR3; SW620-rLuc-KRAS) (human, UniProt P02786 1-760) (assay: cell-based or functional assay).
T1 sequence (P02786 whole entry): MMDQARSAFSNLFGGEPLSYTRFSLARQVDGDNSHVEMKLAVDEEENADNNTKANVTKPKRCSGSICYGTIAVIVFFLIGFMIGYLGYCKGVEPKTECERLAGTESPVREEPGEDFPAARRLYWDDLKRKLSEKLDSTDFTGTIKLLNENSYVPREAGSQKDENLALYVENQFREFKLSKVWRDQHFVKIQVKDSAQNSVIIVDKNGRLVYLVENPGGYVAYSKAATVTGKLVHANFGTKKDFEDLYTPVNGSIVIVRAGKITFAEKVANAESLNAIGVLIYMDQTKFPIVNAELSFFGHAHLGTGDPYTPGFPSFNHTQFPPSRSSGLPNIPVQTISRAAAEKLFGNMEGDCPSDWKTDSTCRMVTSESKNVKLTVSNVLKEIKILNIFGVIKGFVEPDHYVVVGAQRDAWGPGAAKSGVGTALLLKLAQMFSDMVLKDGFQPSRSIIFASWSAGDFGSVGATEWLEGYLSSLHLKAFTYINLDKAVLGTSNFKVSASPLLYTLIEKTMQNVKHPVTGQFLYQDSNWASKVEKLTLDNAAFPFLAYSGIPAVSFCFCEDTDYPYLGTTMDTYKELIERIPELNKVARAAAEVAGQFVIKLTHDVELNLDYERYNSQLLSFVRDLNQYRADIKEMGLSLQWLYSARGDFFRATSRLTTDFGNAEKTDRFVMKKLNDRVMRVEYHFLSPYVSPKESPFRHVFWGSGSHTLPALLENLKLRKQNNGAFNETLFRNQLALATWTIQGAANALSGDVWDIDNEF

CTG EC50 (CellTiter-Glo luminescent assay, SKBR3 cells, 72 h)	Binder
70 pM	B1
50 pM	B2
570 pM	B3
150 pM	B4
40 pM	B5
570 pM	B6
10 pM	B7
40 pM	B8
60 pM	B9
110 pM	B10
160 pM	B11
70 pM	B12

Molecular target: T1, human CD71 on cells (SKBR3; …)
Assay: cell-based or functional assay
Remark: another data set of the same source

LSA EC50 (luciferase reporter assay, SW620-rLuc-KRAS cells, 72 h)	Binder
470 pM	B13
750 pM	B14
540 pM	B15
480 pM	B16
670 pM	B17
580 pM	B18
530 pM	B19
570 pM	B20
640 pM	B21
470 pM	B22

Each binder was assayed against T2, apical domain of cynomolgus CD71 (cynomolgus, UniProt A0A2K5X958 189-383) (assay: primary ELISA, ratio of signal to HSA control).
T2 construct: domain: apical domain; also called Cyno apical domain
T2 sequence (A0A2K5X958 entry or part of it): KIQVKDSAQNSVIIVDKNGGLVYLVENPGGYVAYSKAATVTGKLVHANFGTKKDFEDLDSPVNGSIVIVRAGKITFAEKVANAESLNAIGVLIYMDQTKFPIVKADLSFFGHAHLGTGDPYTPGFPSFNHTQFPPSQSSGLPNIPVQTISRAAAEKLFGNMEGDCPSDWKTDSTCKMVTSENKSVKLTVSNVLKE

Cyno apical domain:HSA	Binder
223	B23
63	B24
186	B25
119	B26
331	B27
359	B28
47	B29
295	B30
751	B31
242	B32
28	B33
115	B34
282	B35
49	B36
101	B37

The binders below were run against T3, human CD71 extracellular domain (human, UniProt P02786 89-760) (assay: primary ELISA, ratio of signal to HSA control).
T3 construct: also called hCD71; human CD71-ECD
T3 sequence (P02786 89-760): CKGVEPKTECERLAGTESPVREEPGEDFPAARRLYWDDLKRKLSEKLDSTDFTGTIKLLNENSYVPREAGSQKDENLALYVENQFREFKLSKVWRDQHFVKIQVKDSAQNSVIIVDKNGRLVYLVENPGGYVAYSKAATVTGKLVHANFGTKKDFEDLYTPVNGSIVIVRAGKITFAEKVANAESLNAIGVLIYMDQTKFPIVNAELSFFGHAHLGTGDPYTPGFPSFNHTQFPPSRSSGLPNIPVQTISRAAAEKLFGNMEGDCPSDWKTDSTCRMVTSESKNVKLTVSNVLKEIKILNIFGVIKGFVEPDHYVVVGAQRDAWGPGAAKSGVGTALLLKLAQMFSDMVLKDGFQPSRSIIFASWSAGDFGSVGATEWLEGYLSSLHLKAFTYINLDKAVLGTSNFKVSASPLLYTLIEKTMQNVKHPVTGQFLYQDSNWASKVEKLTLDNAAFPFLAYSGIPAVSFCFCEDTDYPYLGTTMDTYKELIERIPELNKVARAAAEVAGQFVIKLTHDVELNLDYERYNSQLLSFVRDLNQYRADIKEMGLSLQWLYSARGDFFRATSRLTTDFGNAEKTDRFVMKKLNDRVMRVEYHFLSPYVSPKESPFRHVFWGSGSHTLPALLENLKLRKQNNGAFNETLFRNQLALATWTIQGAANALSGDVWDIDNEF

hCD71:HSA	Binder
215	B23
56	B24
176	B25
90	B26
191	B27
202	B28
26	B29
195	B30
388	B31
133	B32
20	B33
74	B34
151	B35
30	B36
66	B37

These binders were tested against T4, human CD71 extracellular domain (CD71-ECD) (human, UniProt P02786 89-760) (assay: capture ELISA, 20 nM antigen on Neutravidin plate, FN3 titrated 250 to 0.3 nM).
T4 construct: It was captured on a Neutravidin plate; also called hCD71; transferrin receptor 1 ECD
T4 sequence (P02786 89-760): as above
Description: Select CD71-binding FN3 domains identified in Example 4 above were chosen to determine their binding to both human and cynomolgus monkey CD71 extracellular domain (CD71-ECD). Capture ELISA using CD71 binding to FN3 domains was performed, with the FN3 domains being titrated from 250 nM to 0.3 nM. 20 nM of antigen was incubated on a Neutravidin® plate for 1 hour at room temperature. The FN3 domains were incubated for 16 hours at room temperature.

EC50	Binder
10000 pM	B38

Molecular target: T1, human CD71 on cells (SKBR3; …)
Assay: cell-based or functional assay
Remark: another data set of the same source

CTG EC50 (CellTiter-Glo luminescent assay, SKBR3 cells, 72 h)	Binder
14400 pM	B38

The binders below were run against T2, apical domain of cynomolgus CD71 (assay: primary ELISA, luminescence).

RLU	Binder
6.01e+06 RLU	B23
5.52e+06 RLU	B24
6.08e+06 RLU	B25
4.52e+06 RLU	B26
4.22e+06 RLU	B27
4.78e+06 RLU	B28
4.11e+06 RLU	B29
5.41e+06 RLU	B30
4.69e+06 RLU	B31
4.86e+06 RLU	B32
4.33e+06 RLU	B33
4.79e+06 RLU	B34
4.73e+06 RLU	B35
4.23e+06 RLU	B36
4.58e+06 RLU	B37

The binders below were run against T3, human CD71 extracellular domain (assay: primary ELISA, luminescence).

RLU	Binder
5.78e+06 RLU	B23
4.93e+06 RLU	B24
5.75e+06 RLU	B25
3.42e+06 RLU	B26
2.43e+06 RLU	B27
2.69e+06 RLU	B28
2.25e+06 RLU	B29
3.58e+06 RLU	B30
2.43e+06 RLU	B31
2.66e+06 RLU	B32
3.1e+06 RLU	B33
3.1e+06 RLU	B34
2.54e+06 RLU	B35
2.62e+06 RLU	B36
3.01e+06 RLU	B37
